Stoichiometry N data for one molecule are collected here from article PMC4701952.

The experiment addresses T1, SEP3 full length wild type (A. thaliana), O22456.
T1 chain: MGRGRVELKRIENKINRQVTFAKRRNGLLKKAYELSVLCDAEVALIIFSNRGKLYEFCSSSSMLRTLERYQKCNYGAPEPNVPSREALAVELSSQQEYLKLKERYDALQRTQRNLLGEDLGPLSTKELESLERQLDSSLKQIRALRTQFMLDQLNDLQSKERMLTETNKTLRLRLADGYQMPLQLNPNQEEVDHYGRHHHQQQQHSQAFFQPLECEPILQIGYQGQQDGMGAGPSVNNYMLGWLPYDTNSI
The experiment in a line: native gel or EMSA; in vitro translated proteins (not purified) with Cy5 labelled SOC1 promoter DNA in which CArG box 1 or CArG box 2 is mutated (one site left). The conditions noted are these: remark: other sources report otherwise.

B1: SEP3 full length wild type, O22456 1-251 (natural protein)
chain: T1 chain
Broadly, the stoichiometry N is the number of molecules, sites or subunits per partner or assembly. In turn, B1 gave a stoichiometry N of 4.
